Earlier results as cited in patent publication US20230250195A1, “Methods for Reducing Infusion-Related Reactions in Patients Treated with EGFR/Met Bispecific Antibodies” (Janssen Biotech, Inc., priority 2022, published 2023).

Settings: 302 patients with locally advanced or metastatic NSCLC; IV amivantamab at recommended Phase 2 dose (RP2D) as a single agent

## amivantamab: IgG1 anti-EGFR/c-Met bispecific antibody described in U.S. Pat. No. 9,593,164
  incidence of infusion-related reactions (IRRs): 66%
